Assay in all cases: FP
Assay [1] concerns the target NCK2 full-length recombinant protein (mouse, WT, tag-free) (mouse, UniProt O55033 1-380).
The target in assay [2] is NCK2 3|1|2 full-length recombinant protein (SH3-shuffled, tag-free) (mouse, UniProt O55033 198-256; O55033 60-113; O55033 2-59; O55033 171-197; O55033 114-170; …).
The target of assay [3] is NCK2 2|3|1 full-length recombinant protein (SH3-shuffled, tag-free) (mouse, UniProt O55033 114-170; O55033 60-113; O55033 198-256; O55033 171-197; O55033 2-59; …).
Assay [4] concerns the target NCK2 1|3|2 full-length recombinant protein (SH3-shuffled, tag-free) (mouse, UniProt O55033 1-113; O55033 198-256; O55033 171-197; O55033 114-170; O55033 257-380).
Assay [5] deals with NCK2 2|1|3 full-length recombinant protein (SH3-shuffled, tag-free) (mouse, UniProt O55033 114-170; O55033 60-113; O55033 2-59; O55033 171-380).
The target of assay [6] is NCK2 3|2|1 full-length recombinant protein (SH3-shuffled, tag-free) (mouse, UniProt O55033 198-256; O55033 60-197; O55033 2-59; O55033 257-380).

No end group written: not given here.

NCK2 2|3|1 full-length recombinant protein (SH3-shuffled, tag-free), sequence (O55033 other isoform, or with tags, fused parts or gaps): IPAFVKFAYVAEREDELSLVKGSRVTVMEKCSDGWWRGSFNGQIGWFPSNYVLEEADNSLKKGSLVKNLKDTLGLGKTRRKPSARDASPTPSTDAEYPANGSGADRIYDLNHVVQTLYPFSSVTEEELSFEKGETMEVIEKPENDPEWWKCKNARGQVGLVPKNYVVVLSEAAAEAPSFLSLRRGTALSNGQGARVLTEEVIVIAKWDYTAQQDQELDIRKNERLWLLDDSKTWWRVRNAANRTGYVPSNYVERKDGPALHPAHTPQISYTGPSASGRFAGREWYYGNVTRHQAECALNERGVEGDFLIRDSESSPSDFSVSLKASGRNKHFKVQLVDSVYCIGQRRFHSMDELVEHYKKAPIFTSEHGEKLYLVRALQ
NCK2 3|1|2 full-length recombinant protein (SH3-shuffled, tag-free), sequence (O55033 other isoform, or with tags, fused parts or gaps): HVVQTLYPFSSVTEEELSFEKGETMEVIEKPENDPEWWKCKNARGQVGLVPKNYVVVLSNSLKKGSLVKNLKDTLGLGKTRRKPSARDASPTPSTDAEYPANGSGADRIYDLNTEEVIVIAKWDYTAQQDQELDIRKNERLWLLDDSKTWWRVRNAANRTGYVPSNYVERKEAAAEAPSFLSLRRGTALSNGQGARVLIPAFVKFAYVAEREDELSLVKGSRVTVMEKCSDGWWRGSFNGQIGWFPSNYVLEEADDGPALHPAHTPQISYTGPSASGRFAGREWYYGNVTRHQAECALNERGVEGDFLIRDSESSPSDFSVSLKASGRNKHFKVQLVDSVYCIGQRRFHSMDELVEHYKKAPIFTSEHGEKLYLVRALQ
NCK2 1|3|2 full-length recombinant protein (SH3-shuffled, tag-free), sequence (O55033 other isoform, or with tags, fused parts or gaps): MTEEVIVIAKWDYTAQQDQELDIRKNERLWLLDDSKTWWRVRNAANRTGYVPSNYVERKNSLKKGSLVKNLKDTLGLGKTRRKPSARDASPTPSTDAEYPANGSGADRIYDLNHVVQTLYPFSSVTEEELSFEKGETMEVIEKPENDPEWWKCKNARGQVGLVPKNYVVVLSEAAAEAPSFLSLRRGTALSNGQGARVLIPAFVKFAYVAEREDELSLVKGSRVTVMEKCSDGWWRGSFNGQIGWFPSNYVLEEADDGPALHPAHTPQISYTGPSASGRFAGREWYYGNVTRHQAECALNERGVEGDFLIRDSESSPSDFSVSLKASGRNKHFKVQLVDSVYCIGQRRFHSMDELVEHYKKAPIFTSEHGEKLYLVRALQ
NCK2 full-length recombinant protein (mouse, WT, tag-free), sequence (O55033 whole entry): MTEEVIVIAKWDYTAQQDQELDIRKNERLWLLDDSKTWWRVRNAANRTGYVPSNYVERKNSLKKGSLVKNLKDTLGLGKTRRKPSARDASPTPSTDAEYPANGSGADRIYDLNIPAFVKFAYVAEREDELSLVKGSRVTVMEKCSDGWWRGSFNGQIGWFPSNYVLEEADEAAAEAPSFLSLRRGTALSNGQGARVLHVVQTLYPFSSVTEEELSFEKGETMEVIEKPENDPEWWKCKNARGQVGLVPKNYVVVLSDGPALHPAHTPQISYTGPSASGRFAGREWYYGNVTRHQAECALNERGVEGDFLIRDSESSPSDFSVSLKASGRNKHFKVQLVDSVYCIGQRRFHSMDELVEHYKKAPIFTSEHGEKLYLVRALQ
NCK2 3|2|1 full-length recombinant protein (SH3-shuffled, tag-free), sequence (O55033 other isoform, or with tags, fused parts or gaps): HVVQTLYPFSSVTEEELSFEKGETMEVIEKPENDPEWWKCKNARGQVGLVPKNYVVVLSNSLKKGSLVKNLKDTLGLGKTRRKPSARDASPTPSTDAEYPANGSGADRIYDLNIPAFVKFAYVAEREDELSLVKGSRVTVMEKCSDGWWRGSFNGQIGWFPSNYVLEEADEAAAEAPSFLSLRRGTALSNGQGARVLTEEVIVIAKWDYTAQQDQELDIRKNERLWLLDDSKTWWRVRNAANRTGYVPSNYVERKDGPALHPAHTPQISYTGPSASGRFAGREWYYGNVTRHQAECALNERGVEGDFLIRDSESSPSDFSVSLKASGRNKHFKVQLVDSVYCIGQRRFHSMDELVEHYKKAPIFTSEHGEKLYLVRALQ
NCK2 2|1|3 full-length recombinant protein (SH3-shuffled, tag-free), sequence (O55033 other isoform, or with tags, fused parts or gaps): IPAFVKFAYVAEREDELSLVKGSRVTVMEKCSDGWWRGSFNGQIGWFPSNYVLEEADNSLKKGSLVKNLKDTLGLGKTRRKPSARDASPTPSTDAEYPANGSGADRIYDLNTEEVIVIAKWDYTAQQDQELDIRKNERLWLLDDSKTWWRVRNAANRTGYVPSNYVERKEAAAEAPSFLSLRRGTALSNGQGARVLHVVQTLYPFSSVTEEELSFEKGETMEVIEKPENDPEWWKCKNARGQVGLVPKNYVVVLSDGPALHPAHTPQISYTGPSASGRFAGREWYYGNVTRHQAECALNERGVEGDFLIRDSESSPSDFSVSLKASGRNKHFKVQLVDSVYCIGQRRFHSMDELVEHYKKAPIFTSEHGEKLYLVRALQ

One may read the Kd as a measure of binding affinity in units of concentration. RGQNKERPPPVPNPDY (also: fluorescein isothiocyanate-conjugated (position not given here)) [Cd3ε peptide (RGQNKERPPPVPNPDY), fluorescein isothiocyanate-conjugated]: the Kd was 12.7 µM in assay [1]; 16.2 µM in assay [2]; 26.3 µM in assay [3]; 13.5 µM in assay [4]; 18 µM in assay [5].
With DIQDKPPAPPMRNTST (also: fluorescein isothiocyanate-conjugated (position not given here)) [PAK1 peptide (DIQDKPPAPPMRNTST), fluorescein isothiocyanate-conjugated], the Kd worked out at 36 µM in assay [1]; 54.8 µM in assay [2]; 21.6 µM in assay [3]; 31.6 µM in assay [6]; 77.9 µM in assay [4].

Values taken from article PMC7954794 (2021).
